In US20240352433, “ENZYMES WITH HEPN DOMAINS” (Metagenomi, Inc., published 2024):
Positions count from the first letter of the chain named.

How the values were obtained:
MG105-1 = target: T1, MG105-1 (uncultivated organism); experiment: crRNA processing: 10 nt trimmed 5' of spacer, 36 nt repeat retained; spacer 5' of repeat
T1 chain: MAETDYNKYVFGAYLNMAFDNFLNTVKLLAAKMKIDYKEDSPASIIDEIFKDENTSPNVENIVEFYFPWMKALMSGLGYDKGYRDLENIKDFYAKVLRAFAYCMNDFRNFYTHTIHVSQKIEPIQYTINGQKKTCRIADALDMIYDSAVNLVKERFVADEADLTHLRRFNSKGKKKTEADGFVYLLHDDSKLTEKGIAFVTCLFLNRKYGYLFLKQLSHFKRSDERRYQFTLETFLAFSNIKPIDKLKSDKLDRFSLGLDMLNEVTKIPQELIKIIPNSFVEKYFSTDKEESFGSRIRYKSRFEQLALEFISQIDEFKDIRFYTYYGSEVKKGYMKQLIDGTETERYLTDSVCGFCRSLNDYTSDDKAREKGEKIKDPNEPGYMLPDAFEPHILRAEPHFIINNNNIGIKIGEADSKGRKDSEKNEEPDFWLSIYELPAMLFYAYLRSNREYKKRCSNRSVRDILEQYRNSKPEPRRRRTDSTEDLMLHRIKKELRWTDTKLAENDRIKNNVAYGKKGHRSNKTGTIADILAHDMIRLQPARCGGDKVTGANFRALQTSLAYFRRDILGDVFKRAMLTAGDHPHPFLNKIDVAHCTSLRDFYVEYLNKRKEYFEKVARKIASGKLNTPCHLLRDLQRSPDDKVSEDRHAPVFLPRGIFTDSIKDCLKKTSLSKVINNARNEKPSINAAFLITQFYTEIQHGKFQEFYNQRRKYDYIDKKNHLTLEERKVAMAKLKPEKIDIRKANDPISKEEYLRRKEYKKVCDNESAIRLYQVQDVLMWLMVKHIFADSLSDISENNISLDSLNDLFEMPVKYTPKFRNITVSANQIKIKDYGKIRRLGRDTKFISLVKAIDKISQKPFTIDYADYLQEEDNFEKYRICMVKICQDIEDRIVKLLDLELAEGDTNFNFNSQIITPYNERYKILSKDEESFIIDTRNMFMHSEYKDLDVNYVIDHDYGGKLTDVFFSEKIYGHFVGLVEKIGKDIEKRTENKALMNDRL
Protocol: (§1) RNA was extracted from PURExpress cell lysate expressions following the Quick-RNA™ Miniprep Kit (Zymo Research) and eluted in 30-50 μL of water. 5′ ends of the processed crRNA were mono-phosphorylated with 10 units of T4 Polynucleotide Kinase, 40 units of Murine RNase Inhibitor, and 1X of T4 DNA Ligase Buffer (NEB Inc.) in 25-50 μL reactions. Following a 30-minute incubation at 37° C., reactions were stopped with column purification using Monarch® RNA Cleanup Kit ([…]) (NEB Inc.). The total concentration of the transcripts were measured on a Nanodrop, Tapestation, and Qubit.
(§2) 100ng-1pg of total RNA from each sample were prepped for RNA sequencing using the NEBNext Small RNA Library Prep Set for Illumina (NEB Inc.). Amplicons between 150-300 bp were quantified by Tapestation and Qubit and pooled to a concentration of 4 nM. A concentration of […] was loaded into a MiSeq V3 kit and sequenced in a Miseq system (Illumina) for 176 total cycles. The RNAseq reads were used to identify the processed crRNA sequences. Illumina adapters were removed from all reads using fastp (see e.g., Bioinformatics 2018, 34 (17), i884-i890, which is incorporated by reference herein in its entirety). […]

MG103-6 = target: T2, MG103-6 (uncultivated organism); experiment: crRNA processing by RNAseq: 6 nt trimmed from 5' of repeat, 30 nt repeat, 21 and 26 nt spacers
T2 chain: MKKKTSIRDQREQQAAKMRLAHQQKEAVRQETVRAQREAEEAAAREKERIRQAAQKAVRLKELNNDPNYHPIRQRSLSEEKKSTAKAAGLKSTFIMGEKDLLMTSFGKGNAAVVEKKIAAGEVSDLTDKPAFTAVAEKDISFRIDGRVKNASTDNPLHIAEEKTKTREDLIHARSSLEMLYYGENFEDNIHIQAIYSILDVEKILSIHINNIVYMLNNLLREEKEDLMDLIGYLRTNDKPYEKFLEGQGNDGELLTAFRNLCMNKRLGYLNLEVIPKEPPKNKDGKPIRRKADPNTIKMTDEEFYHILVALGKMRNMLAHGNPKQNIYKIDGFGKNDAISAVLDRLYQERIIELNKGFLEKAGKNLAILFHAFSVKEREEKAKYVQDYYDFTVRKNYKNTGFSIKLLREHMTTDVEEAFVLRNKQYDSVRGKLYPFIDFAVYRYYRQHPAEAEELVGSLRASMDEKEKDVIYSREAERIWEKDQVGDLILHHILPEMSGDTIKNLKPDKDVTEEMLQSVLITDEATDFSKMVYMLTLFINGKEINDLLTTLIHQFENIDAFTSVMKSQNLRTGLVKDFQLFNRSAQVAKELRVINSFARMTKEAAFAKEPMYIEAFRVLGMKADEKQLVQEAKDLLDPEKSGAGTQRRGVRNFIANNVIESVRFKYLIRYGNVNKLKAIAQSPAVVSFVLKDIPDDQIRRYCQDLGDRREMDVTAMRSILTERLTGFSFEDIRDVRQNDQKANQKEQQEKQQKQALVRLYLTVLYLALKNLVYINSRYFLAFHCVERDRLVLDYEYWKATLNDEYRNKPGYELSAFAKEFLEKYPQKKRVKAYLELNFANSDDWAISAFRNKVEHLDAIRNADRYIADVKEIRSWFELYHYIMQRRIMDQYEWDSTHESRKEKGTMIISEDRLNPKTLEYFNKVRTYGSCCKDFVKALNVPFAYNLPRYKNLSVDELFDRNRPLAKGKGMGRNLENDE
Protocol: as §1, §2

MG103-12 = target: T3, MG103-12 (uncultivated organism); experiment: crRNA processing by RNAseq: 30 nt repeat, 21 nt spacer
T3 chain: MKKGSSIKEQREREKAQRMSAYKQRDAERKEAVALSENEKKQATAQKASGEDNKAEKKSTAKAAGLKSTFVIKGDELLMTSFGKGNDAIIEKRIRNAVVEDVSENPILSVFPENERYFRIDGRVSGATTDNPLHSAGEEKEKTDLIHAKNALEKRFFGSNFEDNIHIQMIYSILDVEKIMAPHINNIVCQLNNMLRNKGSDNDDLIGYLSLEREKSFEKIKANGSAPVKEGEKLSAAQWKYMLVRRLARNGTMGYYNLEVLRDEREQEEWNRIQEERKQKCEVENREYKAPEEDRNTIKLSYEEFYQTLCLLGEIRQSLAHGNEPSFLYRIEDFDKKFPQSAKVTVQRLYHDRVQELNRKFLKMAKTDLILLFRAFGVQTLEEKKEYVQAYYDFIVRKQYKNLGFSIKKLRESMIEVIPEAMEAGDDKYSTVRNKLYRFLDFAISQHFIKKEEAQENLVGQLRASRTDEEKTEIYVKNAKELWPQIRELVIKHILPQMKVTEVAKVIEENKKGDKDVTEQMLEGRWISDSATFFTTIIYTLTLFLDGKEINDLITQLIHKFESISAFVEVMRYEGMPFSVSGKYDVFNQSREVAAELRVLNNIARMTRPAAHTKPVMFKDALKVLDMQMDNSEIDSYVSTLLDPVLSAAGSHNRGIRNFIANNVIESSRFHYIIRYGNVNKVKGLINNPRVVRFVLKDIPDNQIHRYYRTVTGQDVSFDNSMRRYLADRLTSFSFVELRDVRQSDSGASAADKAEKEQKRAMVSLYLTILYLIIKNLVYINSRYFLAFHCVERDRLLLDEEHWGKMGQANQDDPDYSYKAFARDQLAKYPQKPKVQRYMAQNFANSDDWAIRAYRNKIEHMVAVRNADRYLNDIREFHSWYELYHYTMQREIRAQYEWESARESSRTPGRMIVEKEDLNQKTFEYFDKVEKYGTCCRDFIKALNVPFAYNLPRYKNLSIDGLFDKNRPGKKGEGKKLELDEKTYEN
Protocol: as §1, §2

B1: 105-1_MA_30_REV array (ssRNA)
RNA: GGUUGUAACAGCCUUUAGUUUGUAAGGUAAAAACAACCCGUCCAGCUCGACCAGGAUGGGAACAACGGUUGUAACAGCCUUUAGUUUGUAAGGUAAAAACAACAGGCUAGGUGGAGGCUCAGUG
Question: Does B1 bind (MG105-1)?
Answer: Result: binds

B2: 103-6_MA_30_REV array (ssRNA)
RNA: GGAACUACACCCUUACGAACUCGUAGGGGUCUGAAACCCGUCCAGCUCGACCAGGAUGGGAACAACGGAACUACACCCUUACGAACUCGUAGGGGUCUGAAACAGGCUAGGUGGAGGCUCAGUG
Question: Does B2 bind (MG103-6)?
Answer: Result: binds

B3: 103-12_MA_30_FWD array (ssRNA)
RNA: B2 RNA with G17C, A18G, C20U, C22G, G26A, G83C, A84G, C86U, C88G, G92A
Question: Does B3 bind (MG103-12)?
Answer: Result: binds
